{"source": "patent US20100015650", "proteins": {"B1": {"name": "EphA8 (protein)", "chain": "KKRHCGYSKAFQDSDEEKMHYQNGQAPPPVFLPLHHPPGKLPEPQFYAEPHTYEEPGRAGRSFTREIEASRIHIEKIIGSGDSGEVCYGRLRVPGQRDVPVAIKALKAGYTERQRRDFLSEASIMGQFDHPNIIRLEGVVTRGRLAMIVTEYMENGSLDTFLRTHDGQFTIMQLVGMLRGVGAGMRYLSDLGYVHRDLAARNVLVDSNLVCKVSDFGLSRVLEDDPDAAYTTTGGKIPIRWTAPEAIAFRTFSSASDVWSFGVVMWEVLAYGERPYWNMTNRDVISSVEEGYRLPAPMGCPHALHQLMLDCWHKDRAQRPRFSQIVSVLDALIRSPESLRATATVSRCPPPAFVRSCFDLRGGSGGGGGLTVGDWLDSIRMGRYRDHFAAGGYSSLGMVLRMNAQDVRALGITLMGHQKKILGSIQTMRAQLTSTQGPRRHL"}, "B2": {"name": "EphB3 (protein)", "chain": "CLRKQRHGSDSEYTEKLQQYIAPGMKVYIDPFTYEDPNEAVREFAKEIDVSCVKIEEVIGAGEFGEVCRGRLKQPGRREVFVAIKTLKVGYTERQRRDFLSEASIMGQFDHPNIIRLEGVVTKSRPVMILTEFMENCALDSFLRLNDGQFTVIQLVGMLRGIAAGMKYLSEMNYVHRDLAARNILVNSNLVCKVSDFGLSRFLEDDPSDPTYTSSLGGKIPIRWTAPEAIAYRKFTSASDVWSYGIVMWEVMSYGERPYWDMSNQDVINAVEQDYRLPPPMDCPTALHQLMLDCWVRDRNLRPKFSQIVNTLDKLIRNAASLKVIASAQSGMSQPLLDRTVPDYTTFTTVGDWLDAIKMGRYKESFVSAGFASFDLVAQMTAEDLLRIGVTLAGHQKKILSSIQDMRLQMNQTLPVQV"}, "B3": {"name": "EphB2 (protein)", "chain": "CNRRGFERADSEYTDKLQHYTSGHMTPGMKIYIDPFTYEDPNEAVREFAKEIDISCVKIEQVIGAGEFGEVCSGHLKLPGKREIFVAIKTLKSGYTEKQRRDFLSEASIMGQFDHPNVIHLEGVVTKSTPVMIITEFMENGSLDSFLRQNDGQFTVIQLVGMLRGIAAGMKYLADMNYVHRDLAARNILVNSNLVCKVSDFGLSRFLEDDTSDPTYTSALGGKIPIRWTAPEAIQYRKFTSASDVWSYGIVMWEVMSYGERPYWDMTNQDVINAIEQDYRLPPPMDCPSALHQLMLDCWQKDRNHRPKFGQIVNTLDKMIRNPNSLKAMAPLSSGINLPLLDRTIPDYTSFNTVDEWLEAIKMGQYKESFANAGFTSFDVVSQMMMEDILRVGVTLAGHQKKILNSIQVMRAQMNQIQSVEG"}, "B4": {"name": "EphA6 (protein)", "chain": "TGRCQWYIKAKMKSEEKRRNHLQNGHLRFPGIKTYIDPDTYEDPSLAVHEFAKEIDPSRIRIERVIGAGEFGEVCSGRLKTPGKREIPVAIKTLKGGHMDRQRRDFLREASIMGQFDHPNIIRLEGVVTKRSFPAIGVEAFCPSFLRAGFLNSIQAPHPVPGGGSLPPRIPAGRPVMIVVEYMENGSLDSFLRKHDGHFTVIQLVGMLRGIASGMKYLSDMGYVHRDLAARNILVNSNLVCKVSDFGLSRVLEDDPEAAYTTTGGKIPIRWTAPEAIAYRKFSSASDAWSYGIVMWEVMSYGERPYWEMSNQDVILSIEEGYRLPAPMGCPASLHQLMLHCWQKERNHRPKFTDIVSFLDKLIRNPSALHTLVEDILVMPESPGEVPEYPLFVTVGDWLDSIKMGQYKNNFVAAGFTTFDLISRMSIDDIRRIGVILIGHQRRIVSSIQTLRLHMMHIQEKGFHV"}, "B5": {"name": "EphA5 (protein)", "chain": "SGSCCECGCGRASSLCAVAHPSLIWRCGYSKAKQDPEEEKMHFHNGHIKLPGVRTYIDPHTYEDPNQAVHEFAKEIEASCITIERVIGAGEFGEVCSGRLKLPGKRELPVAIKTLKVGYTEKQRRDFLGEASIMGQFDHPNIIHLEGVVTKSKPVMIVTEYMENGSLDTFLKKNDGQFTVIQLVGMLRGISAGMKYLSDMGYVHRDLAARNILINSNLVCKVSDFGLSRVLEDDPEAAYTTRGGKIPIRWTAPEAIAFRKFTSASDVWSYGIVMWEVVSYGERPYWEMTNQDVIKAVEEGYRLPSPMDCPAALYQLMLDCWQKERNSRPKFDEIVNMLDKLIRNPSSLKTLVNASCRVSNLLAEHSPLGSGAYRSVGEWLEAIKMGRYTEIFMENGYSSMDAVAQVTLEDLRRLGVTLVGHQKKIMNSLQEMKVQLVNGMVPL"}, "B6": {"name": "EphB1 (protein)", "chain": "SRKRAYSKEAVYSDKLQHYSTGRGSPGMKIYIDPFTYEDPNEAVREFAKEIDVSFVKIEEVIGAGEFGEVYKGRLKLPGKREIYVAIKTLKAGYSEKQRRDFLSEASIMGQFDHPNIIRLEGVVTKSRPVMIITEFMENGALDSFLRQNDGQFTVIQLVGMLRGIAAGMKYLAEMNYVHRDLAARNILVNSNLVCKVSDFGLSRYLQDDTSDPTYTSSLGGKIPVRWTAPEAIAYRKFTSASDVWSYGIVMWEVMSFGERPYWDMSNQDVINAIEQDYRLPPPMDCPAALHQLMLDCWQKDRNSRPRFAEIVNTLDKMIRNPASLKTVATITAVPSQPLLDRSIPDFTAFTTVDDWLSAIKMVQYRDSFLTAGFTSLQLVTQMTSEDLLRIGITLAGHQKKILNSIHSMRVQISQSPTAMA"}, "B7": {"name": "ARG (protein)", "chain": "GQQVGRVGEAPGLQQPQPRGIRGSSAARPSGRRRDPAGRTTETGFNIFTQHDHFASCVEDGFEGDKTGGSSPEALHRPYGCDVEPQALNEAIRWSSKENLLGATESDPNLFVALYDFVASGDNTLSITKGEKLRVLGYNQNGEWSEVRSKNGQGWVPSNYITPVNSLEKHSWYHGPVSRSAAEYLLSSLINGSFLVRESESSPGQLSISLRYEGRVYHYRINTTADGKVYVTAESRFSTLAELVHHHSTVADGLVTTLHYPAPKCNKPTVYGVSPIHDKWEMERTDITMKHKLGGGQYGEVYVGVWKKYSLTVAVKTLKEDTMEVEEFLKEAAVMKEIKHPNLVQLLGVCTLEPPFYIVTEYMPYGNLLDYLRECNREEVTAVVLLYMATQISSAMEYLEKKNFIHRDLAARNCLVGENHVVKVADFGLSRLMTGDTYTAHAGAKFPIKWTAPESLAYNTFSIKSDVWAFGVLLWEIATYGMSPYPGIDLSQVYDLLEKGYRMEQPEGCPPKVYELMRACWKWSPADRPSFAETHQAFETMFHDSSISEEVAEELGRAASSSSVVPYLPRLPILPSKTRTLKKQVENKENIEGAQDATENSASSLAPGFIRGAQASSGSPALPRKQRDKSPSSLLEDAKETCFTRDRKGGFFSSFMKKRNAPTPPKRSSSFREMENQPHKKYELTGNFSSVASLQHADGFSFTPAQQEANLVPPKCYGGSFAQRNLCNDDGGGGGGSGTAGGGWSGITGFFTPRLIKKTLGLRAGKPTASDDTSKPFPRSNSTSSMSSGLPEQDRMAMTLPRNCQRSKLQLERTVSTSSQPEENVDRANDMLPKKSEESAAPSRERPKAKLLPRGATALPLRTPSGDLAITEKDPPGVGVAGVAAAPKGKEKNGGARLGMAGVPEDGEQPGWPSPAKAAPVLPTTHNHKVPVLISPTLKHTPADVQLIGTDSQGNKFKLLSEHQVTSSGDKDRPRRVKPKCAPPPPPVMRLLQHPSICSDPTEEPTALTAGQSTSETQEGGKKAALGAVPISGKAGRPVMPPPQVPLPTSSISPAKMANGTAGTKVALRKTKQAAEKISADKISKEALLECADLLSSALTEPVPNSQLVDTGHQLLDYCSGYVDCIPQTRNKFAFREAVSKLELSLQELQVSSAAAGVPGTNPVLNNLLSCVQEISDVVQR"}}, "molecular_target": "T1, BRB1 tyrosine kinase substrate peptide", "T1 chain": "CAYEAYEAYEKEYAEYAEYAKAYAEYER"}
{"protein": "B1", "values": [{"measurement": "Signal to Noise ratio with BRB1 Peptide (TR-FRET kinase assay; kinase 0.25 nM)", "result": 32.3}]}
{"protein": "B2", "values": [{"measurement": "Signal to Noise ratio with BRB1 Peptide (TR-FRET kinase assay; kinase 0.1 nM)", "result": 24.7}]}
{"protein": "B3", "values": [{"measurement": "Signal to Noise ratio with BRB1 Peptide (TR-FRET kinase assay; kinase 0.25 nM)", "result": 28.8}]}
{"protein": "B4", "values": [{"measurement": "Signal to Noise ratio with BRB1 Peptide (TR-FRET kinase assay; kinase 0.5 nM)", "result": 5.4}]}
{"protein": "B5", "values": [{"measurement": "Signal to Noise Ratio with BRB1 Peptide (TR-FRET kinase assay; kinase 1 nM)", "result": 35.5}]}
{"protein": "B6", "values": [{"measurement": "Signal to Noise ratio with BRB1 Peptide (TR-FRET kinase assay; kinase 0.5 nM)", "result": 29.9}]}
{"protein": "B7", "values": [{"measurement": "Signal to Noise ratio with BRB1 Peptide (TR-FRET kinase assay; kinase 0.5 nM)", "result": 10.6}]}
